Where a chain is given by its changes, count along the chain named. Numbers in names are those of the source. Where “and” joins values, the source holds several entries; their conditions need not be identical. Equal entries are not always repeated.
Experiments:
[1] = biological target: the molecule itself; assay: SEC-MALS
[2] = biological target: the molecule itself; assay: crystal structure
[3] = biological target: the molecule itself; assay: AUC + SEC
[4] = biological target: the molecule itself; assay: cross-linking

B1: MBP-tagged complete IMS domain of CCDC127, C144S with L176S/F177S/V222S/W223S (MBP-CC-CHB^C144STip, residues 48-260) (domain or fragment, human, UniProt Q96BQ5 48-260, looked up)
chain: SQKEVEKEREAYRRRTAAFQQDLEAKYHAMISENRRAVAQLSLELEKEQNRTASYREALISQGRKLVEEKKLLEQERAQVMQEKRQVQPLRSAYLSSLQREENWQRRARLLLKEFEAVLTERQNIYCSSSLPRSKRLEIEKSLLVRASVDPVAADLEMAAGLTDIFQHDTYCGDSSNTNKRQNGRLMWLYLKYWELVVELKKFKRVEEAILEK
[1]
  stoichiometry N: 2 to 3

B2: MBP-tagged complete IMS domain of CCDC127, C144S (MBP-CC-CHB^C144S, residues 48-260) (domain or fragment, human, UniProt Q96BQ5 48-260, looked up)
chain: B1 chain with S129L, S130F, S175V, S176W
[1]
  stoichiometry N: 2

B3: CCDC127 coiled-coil domain (CCDC127^CC, residues 48-120), wild type (domain or fragment, human, UniProt Q96BQ5 48-120, looked up)
chain: SQKEVEKEREAYRRRTAAFQQDLEAKYHAMISENRRAVAQLSLELEKEQNRTASYREALISQGRKLVEEKKLL
[2]
  stoichiometry N: 2 and 4

B4: CCDC127^CC-K73A (residues 48-120) (domain or fragment, human, UniProt Q96BQ5 48-120, looked up)
chain: B3 chain with K26A
[3]
  stoichiometry N: 4

B5: CCDC127^CC D69A (residues 48-120) (domain or fragment, human, UniProt Q96BQ5 48-120, looked up)
chain: B3 chain with D22A
[3]
  stoichiometry N: 2

B6: CCDC127 WT-HA (full-length CCDC127 with HA tag) (natural protein, human, UniProt Q96BQ5 1-260, looked up)
chain: MNNLNDPPNWNIRPNSRADGGDGSRWNYALLVPMLGLAAFRWIWSRESQKEVEKEREAYRRRTAAFQQDLEAKYHAMISENRRAVAQLSLELEKEQNRTASYREALISQGRKLVEEKKLLEQERAQVMQEKRQVQPLRSAYLSCLQREENWQRRARLLLKEFEAVLTERQNIYCSLFLPRSKRLEIEKSLLVRASVDPVAADLEMAAGLTDIFQHDTYCGDVWNTNKRQNGRLMWLYLKYWELVVELKKFKRVEEAILEK
[4]
  stoichiometry N: 2

B7: CCDC127^135-260-HA (C-terminal helical bundle domain) (domain or fragment, human, UniProt Q96BQ5 135-260, looked up)
chain: QPLRSAYLSCLQREENWQRRARLLLKEFEAVLTERQNIYCSLFLPRSKRLEIEKSLLVRASVDPVAADLEMAAGLTDIFQHDTYCGDVWNTNKRQNGRLMWLYLKYWELVVELKKFKRVEEAILEK
[4]
  stoichiometry N: 2

B8: CCDC127^1-134-HA (N-terminal variant with the coiled-coil, lacking the C-terminal domain) (domain or fragment, human, UniProt Q96BQ5 1-134, looked up)
chain: MNNLNDPPNWNIRPNSRADGGDGSRWNYALLVPMLGLAAFRWIWSRESQKEVEKEREAYRRRTAAFQQDLEAKYHAMISENRRAVAQLSLELEKEQNRTASYREALISQGRKLVEEKKLLEQERAQVMQEKRQV
[4]
  stoichiometry N: 2

B9: MBP-tagged C-terminal helical bundle of CCDC127, C144S variant (MBP-CHB^C144S, residues 137-260) (domain or fragment, human, UniProt Q96BQ5 137-260, looked up)
chain: LRSAYLSSLQREENWQRRARLLLKEFEAVLTERQNIYCSLFLPRSKRLEIEKSLLVRASVDPVAADLEMAAGLTDIFQHDTYCGDVWNTNKRQNGRLMWLYLKYWELVVELKKFKRVEEAILEK
[1]
  stoichiometry N: 2

B10: MBP-tagged C-terminal helical bundle of CCDC127, C144S with L176S/F177S/V222S/W223S (MBP-CHB^C144STip, residues 137-260) (domain or fragment, human, UniProt Q96BQ5 137-260, looked up)
chain: B9 chain with L40S, F41S, V86S, W87S
[1]
  stoichiometry N: 2
